Source: patent publication US20230357354A1, “CD38-BINDING CD31 PEPTIDES AND USES THEREOF” (ENCEFA, priority 2020, published 2023)

Columns and labels:
[1] = molecular target: recombinant human CD38 (Acrobio, ref CD8-H5224) (human), P28907; assay: SPR, Biacore 3000, CM5 chip, recombinant human CD38
[2] = molecular target: human CD38 on cells (Daudi cells; CD38^+ Jurkat T cells) (human), P28907; assay: cell-based or functional assay

Kd [1]: 8.8 nM | EC50, glucose uptake (2-NBDG fluorescence), human Daudi cells [2]: 2 pM
Binder: CMVKLKREKNPGDQNFVILEFC (modifications not checked) [β-sheet-like folded peptide … (SEQ ID NO: 10), free peptide]
